# Assay results published in patent publication US20220119513A1 (ZOETIS SERVICES, published 2022).
# Like-named read-outs stand apart in the source and are kept apart here.
# T1: canine TGFβ2 (canine, UniProt A0A8I3PZZ6 331-442)
# T1 sequence: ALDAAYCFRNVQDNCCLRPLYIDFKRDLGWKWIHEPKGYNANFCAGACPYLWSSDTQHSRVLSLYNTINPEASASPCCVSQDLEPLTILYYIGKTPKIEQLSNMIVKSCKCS
# T2: canine TGFβ3 (canine, UniProt A0A8I3S1P1 346-457)
# T2 sequence: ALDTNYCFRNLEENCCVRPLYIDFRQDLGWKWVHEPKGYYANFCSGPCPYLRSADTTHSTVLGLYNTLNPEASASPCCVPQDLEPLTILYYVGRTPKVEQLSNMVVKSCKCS
# T3: TGFβ3 (R&D Systems) (Homo sapiens (Human), UniProt P10600 301-412, Active TGFβ3 is a disulfide-linked homodimer of this chain; one copy is given.)
# T3 sequence: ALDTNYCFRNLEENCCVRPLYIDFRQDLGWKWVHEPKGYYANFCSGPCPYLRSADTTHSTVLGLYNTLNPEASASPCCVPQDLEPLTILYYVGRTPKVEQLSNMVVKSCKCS
# T4: TGFβ2 (R&D Systems)
# T4 construct: also called TGFB2
# T4 sequence (P61812 303-414, species assumed, looked up): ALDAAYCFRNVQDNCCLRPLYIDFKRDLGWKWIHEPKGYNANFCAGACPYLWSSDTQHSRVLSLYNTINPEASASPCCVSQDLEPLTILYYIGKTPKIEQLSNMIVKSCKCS
# B1: Can04H09 VH3/VL4 (antibody, V domains shown)
# VH: EVQLVQSAAEVKKPGASVKVSCKTSGYTFTSSWMNWVQQAPGAGLDWMGQIYPGDGDTNYNGKFKGRVTLTADTSTSTAYMELSSLRAEDTAVYYCARHYDGSTDYWGQGTLVTVSS
# VL: EIVMTQSPASLSLSQGEKVTITCRASENIYSNLAWYQQRPGQAPKLLIYAATNLADGVPSRFSGSGSGTDFSLTISSLEPEDVAVYYCQHFWGTPYTFGQGTK
# B2: Can04H09 VH1/VL3 (antibody, V domains shown)
# VH: EVQLVQSGAEVKKPGASVKVSCKTSGYTFISSWMNWVRQAPGAGLDWMGQIYPGDGDTNYNGKFKGRVTLTADTSTSTAYMELSSLRAGDIAVYYCARHYDGSTDYWGQGTLVTVSS
# VL: EIVMTQSPASLSLSQEEKVTITCRASENIYSNLAWYQQKPGQAPKLLIYAATNLADGVPSRFSGSGSGTDFSFTISSLEPEDVAVYYCQHFWGTPYTFGQGTK
# B3: Can04H09 VH2/VL4 (antibody, V domains shown)
# VH: EVQLVQSAAEVKKPGASVKVSCKTSGYSFTSSWMNWVQQAPGKGLDWMGQIYPGDGDTNYNGKFKGRVTLTADKSTSTAYMELSSLRSEDAAVYYCARHYDGSTDYWGQGTLVTVSS
# VL: EIVMTQSPASLSLSQGEKVTITCRASENIYSNLAWYQQRPGQAPKLLIYAATNLADGVPSRFSGSGSGTDFSLTISSLEPEDVAVYYCQHFWGTPYTFGQGTK
# B4: Can04H09 VH3/VL3 (antibody, V domains shown)
# VH: EVQLVQSAAEVKKPGASVKVSCKTSGYTFTSSWMNWVQQAPGAGLDWMGQIYPGDGDTNYNGKFKGRVTLTADTSTSTAYMELSSLRAEDTAVYYCARHYDGSTDYWGQGTLVTVSS
# VL: EIVMTQSPASLSLSQEEKVTITCRASENIYSNLAWYQQKPGQAPKLLIYAATNLADGVPSRFSGSGSGTDFSFTISSLEPEDVAVYYCQHFWGTPYTFGQGTK
# B5: fel04H09-17 (antibody, V domains shown)
# VH: QVLLVQSGAEVRRPGASVKIFCKASGYSFTSSWMNWLRQAPAQGFEWMGQIYPGDGDTNYNGKFKGRLTLTADTSTDTAYMELSSLRSADTAVYYCARHYDGSTDYWGHGTIVTVSS
# VL: AITMTQSPGSLAGSPGQQVTMNCRASENIYSNLAWYQQKPGQHPKLLIYAATNLADGVPDRFSGSGSGTDFTLTISNLQAEDVASYYCQHFWGTPYTFGGGT
# B6: fel04H09-24 (antibody, V domains shown)
# VH: QVLLVQSGAEVRKPGASVKIFCKASGYSFTSSWMNWLRQAPEQGLEWMGQIYPGDGDTNYNGKFKGRLTLTADTSTNTAYMELSSLRSADTAMYYCARHYDGSTDYWGQGALVTVSS
# VL: DIVMTQTPLSLPVTPGEPASISCRASENIYSNLAWYLQKPGQSPRLLIYAATNLADGVPSRFSGSGSGTDFTLRISSVEADDVGVYYCQHFWGTPYTFGQGT
# B7: mouse SL501 (antibody, V domains shown)
# VH: EVQLVESGGGVVQPGRSLRLSCAASGFTFSSYGMHWVRQAPGKELEWVAVISYDGSIKYYADSVKGRFTISRDNSKNTLYLQMNSLRAEDTAVYYCARTGEYSGYDTDPQYSWGQGTTVTVSS
# VL: EIVLTQSPSSLSASVGDRVTITCRASQGIGDDLGWYQQKPGKAPILLIYGTSTLQSGVPSRFSGSGSGTDFTLTINSLQPEDFATYYCLQDSNYPLTFGGGTK
# notes: called engineered mouse antibody and also precursor human antibody from phage display; also called mouse-SL501-VH/mouse-SL501-VL; SL501 (murine)
# B8: Can-SL501-VH1/Chimera-SL501-VL (antibody, V domains shown)
# VH: EVQLVESGGDLVKPGGSLRLSCVASGFTFSSYGMHWVRQAPGKGLQWVAVISYDGSIKYYTDAVKGRFTISRDNARNTVYLQMNSLRAEDTAVYYCAKTGEYSGYDTDPQYSWGQGTLVTVSS
# VL: EIVLTQSPSSLSASVGDRVTITCRASQGIGDDLGWYQQKPGKAPILLIYGTSTLQSGVPSRFSGSGSGTDFTLTINSLQPEDFATYYCLQDSNYPLTFGGGTK
# notes: also called heterochimeric SL501
# B9: Can-SL501_VH2/Chimera-SL501-VL (antibody, V domains shown)
# VH: EVQLVESGGDLVKPGGSLRLSCVASGFTFSSYGMHWVRQAPGKGLQWVAVISYDGSIKYYADAVKGRFTISRDNAKNTLYLQMNSLRAEDTAMYYCAKTGEYSGYDTDPQYSWGQGTLVTVSS
# VL: EIVLTQSPSSLSASVGDRVTITCRASQGIGDDLGWYQQKPGKAPILLIYGTSTLQSGVPSRFSGSGSGTDFTLTINSLQPEDFATYYCLQDSNYPLTFGGGTK
# notes: as for B8
# B10: Chimera-SL501-VH/Can-SL501-VL1 (antibody, V domains shown)
# VH: EVQLVESGGGVVQPGRSLRLSCAASGFTFSSYGMHWVRQAPGKELEWVAVISYDGSIKYYADSVKGRFTISRDNSKNTLYLQMNSLRAEDTAVYYCARTGEYSGYDTDPQYSWGQGTTVTVSS
# VL: EIVMTQSPASLSLSQEEKVTITCRASQGIGDDLGWYQQKPGQAPKLLIYGTSTLQSGVPSRFSGSGSGTDFSFTISSLEPEDVAVYYCLQDSNYPLTFGAGTK
# notes: as for B8
# B11: Chimera-SL501-VH/Can-SL501-VL2 (antibody, V domains shown)
# VH: EVQLVESGGGVVQPGRSLRLSCAASGFTFSSYGMHWVRQAPGKELEWVAVISYDGSIKYYADSVKGRFTISRDNSKNTLYLQMNSLRAEDTAVYYCARTGEYSGYDTDPQYSWGQGTTVTVSS
# VL: EIVMTQSPGSLAGSAGESVSINCRASQGIGDDLGWYQQKPGERPKLLIYGTSTLQSGVPARFSSSGSGTDFTLTINNLQAEDVGDYYCLQDSNYPLTFGAGTK
# notes: as for B8
# B12: Chimera-SL501-VH/CanSL501-VL-hybrid (antibody, V domains shown)
# VH: EVQLVESGGGVVQPGRSLRLSCAASGFTFSSYGMHWVRQAPGKELEWVAVISYDGSIKYYADSVKGRFTISRDNSKNTLYLQMNSLRAEDTAVYYCARTGEYSGYDTDPQYSWGQGTTVTVSS
# VL: EIVLTQSPSSLSASVGDRVTITCRASQGIGDDLGWYQQKPGQAPKLLIYGTSTLQSGVPSRFSGSGSGTDFSFTISSLEPEDVAVYYCLQDSNYPLTFGGGTK
# notes: constant regions not restated
# B13: Can-SL501_VH1/CanSL501-VL-hybrid (antibody, V domains shown)
# VH: EVQLVESGGDLVKPGGSLRLSCVASGFTFSSYGMHWVRQAPGKGLQWVAVISYDGSIKYYTDAVKGRFTISRDNARNTVYLQMNSLRAEDTAVYYCAKTGEYSGYDTDPQYSWGQGTLVTVSS
# VL: EIVLTQSPSSLSASVGDRVTITCRASQGIGDDLGWYQQKPGQAPKLLIYGTSTLQSGVPSRFSGSGSGTDFSFTISSLEPEDVAVYYCLQDSNYPLTFGGGTK
# notes: constant regions not restated
# B14: H1chimK (antibody)
# heavy: EVQLVQSGAEVKKPGASVKVSCKTSGYTFITYWMNWVRQAPGAGLDWMGQIFPASGSTNYNEMFEGRVTLTADTSTSTAYMELSSLRAGDIAVYYCARGDGNYALDAMDYWGQGTLVTASTTAPSVFPLAPSCGSTSGSTVALACLVSGYFPEPVTVSWNSGSLTSGVHTFPSVLQSSGLYSLSSMVTVPSSRWPSETFTCNVAHPASKTKVDKPVPKRENGRVPRPPDCPKCPAPEAAGAPSVFIFPPKPKDTLLIARTPEVTCVVVDLDPEDPEVQISWFVDGKQMQTAKTQPREEQFNGTYRVVSVLPIGHQDWLKGKQFTCKVNNKALPSPIERTISKARGQAHQPSVYVLPPSREELSKNTVSLTCLIKDFFPPDIDVEWQSNGQQEPESKYRTTPPQLDEDGSYFLYSKLSVDKSRWQRGDTFICAVMHEALHNHYTQESLSHSPGK
# light: DIVLTQTPASLAVSLGQRATISCRASESVDSYGNSFMHWYQQKSGQPPKLLIYLASNLESGVPARFSGSGSRTDFTLTIDPVEADDAATYYCQQNNEDPLTFGAGTKRNDAQPAVYLFQPSPDQLHTGSASVVCLLNSFYPKDINVKWKVDGVIQDTGIQESVTEQDKDSTYSLSSTLTMSSTEYLSHELYSCEITHKSLPSTLIKSFQRSEC
# notes: also called canHcLb-VH1/chiHcLb-VL
# B15: felHclb_heterochimera-11 (antibody, V domains shown)
# VH: QVLLVQSGAEVRRPGASVKIFCKASGYIFITYYMHWLRQAPAQGFEWMGSIFPASGSTSYAQKFQGRLTLTADTSTDTAYMELSSLRSADTAVYYCARGDGNYALDAMDYWGHGTIVTVSS
# VL: DIVLTQTPASLAVSLGQRATISCRASESVDSYGNSFMHWYQQKSGQPPKLLIYLASNLESGVPARFSGSGSRTDFTLTIDPVEADDAATYYCQQNNEDPLTFGAGTK
# notes: hetero-pairing; also called felHclbH636/mHclbVL
# Legend:
# [1] = molecular target: canine TGFβ1 (canine, UniProt P54831 279-390, limits assumed); test: SPR, TGFβ on chip
# Chain of canine TGFβ1 (P54831 279-390 limits assumed): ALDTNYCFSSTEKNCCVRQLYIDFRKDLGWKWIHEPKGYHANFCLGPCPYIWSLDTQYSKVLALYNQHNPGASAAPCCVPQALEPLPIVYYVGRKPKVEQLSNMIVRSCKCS
# Excerpt: (§1) To avoid affinity differences associated with differential surface preparation that can occur when immobilizing antibodies to surfaces, TGFβ1, TGFβ2, and TGFβ3 (R&D Systems) were directly conjugated to the individual surface. Immobilization was obtained by amine coupling […] using N-hydroxysuccinimide (NHS)/1-Ethyl-3-(3-dimethylaminopropyl) carbodiimide (EDC) chemistry. Chips were quenched with ethanolamine and the affinity with which all candidate mAbs bound to the immobilized TGFβ was evaluated. All curves were fit to a 1:1 model. Affinities <10⁻¹¹ are below the lower limit of quantitation of detection for the instrument.
# [2] = molecular target: T1, canine TGFβ2; test: SPR, TGFβ on chip
# Excerpt: as §1
# [3] = molecular target: T2, canine TGFβ3; test: SPR, TGFβ on chip
# Excerpt: as §1
# [4] = molecular target: TGFβ1 (R&D Systems); test: cell-based or functional assay
# [5] = molecular target: T3, TGFβ3 (R&D Systems); test: cell-based or functional assay
# [6] = molecular target: TGFβ1 (R&D Systems); test: cell-based or functional assay; remark: listed apart in the source
# [7] = molecular target: T3, TGFβ3 (R&D Systems); test: cell-based or functional assay; remark: listed apart in the source
# [8] = molecular target: T5, TGFβ1 (R&D Systems); test: SPR full titration
# T5 construct: also called TGFB1
# T5 sequence (P01137 279-390): as the sequence (P54831 279-390 limits assumed) above
# [9] = molecular target: T5, TGFβ1 (R&D Systems); test: SPR full titration; remark: listed apart in the source
# [10] = molecular target: T4, TGFβ2 (R&D Systems); test: SPR full titration
# [11] = molecular target: T3, TGFβ3 (R&D Systems); test: SPR full titration
# [12] = molecular target: T3, TGFβ3 (R&D Systems); test: SPR
binder,measurement,setting,value
B1,Kd,[1],1.38 nM
same,Kd,[2],32.1 nM
same,Kd,[3],6.06 nM
same,"CMVIC pSmad-3, IC50",[4],0.74 nM
same,"CMVIC pSmad-3, IC50",[5],52.8 nM
B2,Kd,[1],2.43 nM
same,Kd,[2],32 nM
same,Kd,[3],6.52 nM
same,"CMVIC pSmad-3, IC50",[4],0.66 nM
same,"CMVIC pSmad-3, IC50",[5],467 nM
B3,Kd,[1],1.42 nM
same,Kd,[2],32.9 nM
same,Kd,[3],6.03 nM
same,"CMVIC pSmad-3, IC50",[4],0.84 nM
same,"CMVIC pSmad-3, IC50",[5],69.5 nM
B4,Kd,[1],2.79 nM
same,Kd,[2],48.8 nM
same,Kd,[3],9.08 nM
same,"CMVIC pSmad-3, IC50",[4],1.18 nM
same,"CMVIC pSmad-3, IC50",[5],72.8 nM
B5,"CMVIC pSmad-3, IC50",[6],0.89 nM
same,"CRFK pSmad-3, IC50",[6],0.73 nM
same,"CMVIC pSmad-3, IC50",[7],39.9 nM
same,"CRFK pSmad-3, IC50",[7],370 nM
B6,"CRFK pSmad-3, IC50",[6],0.5 nM
same,"CRFK pSmad-3, IC50",[7],30.1 nM
B7,Kd,[8],0.00705 nM
B8,Kd,[8],1100 nM
B9,Kd,[8],1090 nM
B10,Kd,[8],60.8 nM
B11,Kd,[8],0.000192 nM
B12,Kd,[8],0.0428 nM
B13,Kd,[8],4.01 nM
B14,Kd,[9],6.52 nM
same,Kd,[10],0.683 nM
same,Kd,[11],1.03 nM
B15,binding result,[12],no binding
